Values belong to the binder of their own block, whether it stands above or below them.
What was measured:
[1] = target: T1, human CD39 expressed on the cell surface (human, UniProt P49961 1-510); assay: cell-based or functional assay
T1 sequence: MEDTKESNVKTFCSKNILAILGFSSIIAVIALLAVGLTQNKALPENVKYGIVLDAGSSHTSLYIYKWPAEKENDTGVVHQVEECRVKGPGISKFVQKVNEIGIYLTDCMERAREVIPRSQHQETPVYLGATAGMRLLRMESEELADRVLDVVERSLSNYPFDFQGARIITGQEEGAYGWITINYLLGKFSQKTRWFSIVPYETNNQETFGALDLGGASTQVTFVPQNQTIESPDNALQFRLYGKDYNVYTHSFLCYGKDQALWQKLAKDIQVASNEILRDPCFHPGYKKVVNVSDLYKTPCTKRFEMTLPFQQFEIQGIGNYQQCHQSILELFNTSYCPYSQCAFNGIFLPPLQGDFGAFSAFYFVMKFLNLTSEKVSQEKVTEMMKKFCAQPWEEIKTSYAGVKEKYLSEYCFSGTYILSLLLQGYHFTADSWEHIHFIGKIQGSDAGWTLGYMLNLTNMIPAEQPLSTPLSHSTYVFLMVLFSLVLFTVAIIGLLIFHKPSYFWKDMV

[2] = target: T2, recombinant human CD39 (soluble) (human, UniProt P49961 38-478, limits assumed); assay: cell-based or functional assay
T2 sequence (looked up): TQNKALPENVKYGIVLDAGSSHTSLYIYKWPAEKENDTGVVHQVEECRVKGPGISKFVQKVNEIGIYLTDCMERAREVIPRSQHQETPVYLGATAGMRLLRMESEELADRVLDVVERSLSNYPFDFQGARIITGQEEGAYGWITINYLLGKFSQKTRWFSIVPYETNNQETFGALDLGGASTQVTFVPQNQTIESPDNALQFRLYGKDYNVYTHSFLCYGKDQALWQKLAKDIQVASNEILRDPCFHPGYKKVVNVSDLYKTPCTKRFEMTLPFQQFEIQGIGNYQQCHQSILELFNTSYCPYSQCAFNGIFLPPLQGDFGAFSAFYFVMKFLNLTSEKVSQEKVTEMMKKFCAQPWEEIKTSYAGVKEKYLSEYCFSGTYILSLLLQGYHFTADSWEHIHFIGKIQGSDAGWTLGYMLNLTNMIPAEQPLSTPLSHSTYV

[3] = target: T1, human CD39 expressed on the cell surface; assay: cell-based or functional assay; remark: listed apart in the source
[4] = target: T1, human CD39 expressed on the cell surface; assay: cell-based or functional assay; remark: listed apart in the source
[5] = target: T1, human CD39 expressed on the cell surface; assay: FACS on CHO-K1 cells overexpressing human CD39
[6] = target: T3, cynomolgus monkey CD39 expressed on HEK-293 cells (cynomolgus monkey, UniProt P49961 5-510 (human entry)); assay: FACS on HEK293 cells overexpressing cynomolgus CD39
T3 construct: also called Cynomolgus Monkey CD39-HEK293
T3 chain: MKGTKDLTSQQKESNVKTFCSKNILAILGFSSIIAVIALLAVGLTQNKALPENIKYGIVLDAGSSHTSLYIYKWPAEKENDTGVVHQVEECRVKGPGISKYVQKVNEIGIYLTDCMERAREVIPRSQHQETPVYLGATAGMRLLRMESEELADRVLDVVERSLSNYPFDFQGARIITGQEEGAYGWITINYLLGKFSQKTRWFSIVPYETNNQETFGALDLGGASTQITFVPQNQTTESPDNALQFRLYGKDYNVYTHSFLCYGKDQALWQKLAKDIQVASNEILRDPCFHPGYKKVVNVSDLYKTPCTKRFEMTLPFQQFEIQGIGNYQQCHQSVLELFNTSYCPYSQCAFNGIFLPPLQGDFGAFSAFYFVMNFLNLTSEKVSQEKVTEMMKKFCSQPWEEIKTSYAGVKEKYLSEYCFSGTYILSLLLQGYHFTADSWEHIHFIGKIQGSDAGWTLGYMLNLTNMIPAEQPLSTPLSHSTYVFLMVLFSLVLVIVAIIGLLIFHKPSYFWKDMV

[7] = target: T1, human CD39 expressed on the cell surface; assay: flow cytometry on purified human CD14+ monocytes, 0 uM ATP
[8] = target: T1, human CD39 expressed on the cell surface; assay: flow cytometry on purified human CD14+ monocytes, 400 uM ATP
[9] = target: T4, murine CD39 expressed on HEK-293 cells (murine, UniProt P55772 1-510); assay: FACS on HEK-293 cells overexpressing murine CD39 (method of Example 1)
T4 construct: also called mouse CD39
T4 sequence: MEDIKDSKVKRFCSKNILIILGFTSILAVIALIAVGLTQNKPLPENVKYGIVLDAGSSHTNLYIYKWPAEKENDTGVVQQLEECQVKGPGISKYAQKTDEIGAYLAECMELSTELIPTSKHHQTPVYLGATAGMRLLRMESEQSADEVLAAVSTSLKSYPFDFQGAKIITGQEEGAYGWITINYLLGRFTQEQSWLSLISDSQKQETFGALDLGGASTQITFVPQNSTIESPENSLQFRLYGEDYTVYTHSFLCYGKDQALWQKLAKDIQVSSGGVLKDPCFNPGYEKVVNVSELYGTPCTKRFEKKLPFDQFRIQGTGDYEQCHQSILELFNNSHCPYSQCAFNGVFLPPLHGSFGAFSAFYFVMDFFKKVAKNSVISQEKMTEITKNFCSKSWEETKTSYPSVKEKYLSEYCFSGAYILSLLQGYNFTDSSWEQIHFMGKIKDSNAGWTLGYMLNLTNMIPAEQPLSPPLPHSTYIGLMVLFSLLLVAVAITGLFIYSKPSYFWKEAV

[10] = target: T5, soluble His-tagged human CD39 ECD protein (human, UniProt P49961 38-478); assay: SPR (Biacore 8K), antibody captured via anti-human Fc, CD39 ECD analyte
T5 construct: also called human CD39 ECD His-tagged antigen; Sino Biological Cat. No. 16020-H08B
T5 sequence: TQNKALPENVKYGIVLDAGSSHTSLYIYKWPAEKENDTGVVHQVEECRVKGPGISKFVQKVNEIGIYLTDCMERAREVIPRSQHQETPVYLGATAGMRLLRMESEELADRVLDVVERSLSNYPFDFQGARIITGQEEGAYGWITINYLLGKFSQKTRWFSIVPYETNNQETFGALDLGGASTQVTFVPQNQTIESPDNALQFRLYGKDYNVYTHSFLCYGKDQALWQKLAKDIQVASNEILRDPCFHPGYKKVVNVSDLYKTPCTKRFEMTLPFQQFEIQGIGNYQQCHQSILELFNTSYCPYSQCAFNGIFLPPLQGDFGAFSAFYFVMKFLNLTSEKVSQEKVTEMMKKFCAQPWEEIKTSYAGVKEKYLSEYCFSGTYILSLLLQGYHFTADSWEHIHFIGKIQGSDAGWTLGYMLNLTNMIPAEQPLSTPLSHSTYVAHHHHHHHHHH

[11] = target: T5, soluble His-tagged human CD39 ECD …; assay: SPR (Biacore 8K), antibody captured via anti-human Fc, CD39 ECD analyte, 25 C
[12] = target: T1, human CD39 expressed on the cell surface; assay: flow cytometry on whole blood of C57BL/6 hCD39KI MC38 mice treated in vivo with isotype control, with saline or oxaliplatin; signal over the IgG1.FcS-AF647 isotype control (bottom row of panels)
[13] = target: T5, soluble His-tagged human CD39 ECD …; assay: SPR (Biacore 8K), antibody captured via anti-human Fc, CD39 ECD analyte; remark: listed apart in the source
[14] = target: T1, human CD39 expressed on the cell surface; assay: cell-based or functional assay; remark: listed apart in the source
[15] = target: T1, human CD39 expressed on the cell surface; assay: cell-based or functional assay; remark: listed apart in the source
[16] = target: T1, human CD39 expressed on the cell surface; assay: flow cytometry on human PBMCs gated on CD19+ B cells, 0 uM ATP (N = 8)
[17] = target: T1, human CD39 expressed on the cell surface; assay: flow cytometry on human PBMCs gated on CD14+ monocytes, 0 uM ATP (N = 8)
[18] = target: T1, human CD39 expressed on the cell surface; assay: flow cytometry on human PBMCs gated on CD19+ B cells, 400 uM ATP (N = 6)
[19] = target: T1, human CD39 expressed on the cell surface; assay: flow cytometry on human PBMCs gated on CD14+ monocytes, 400 uM ATP (N = 6)
[20] = target: T1, human CD39 expressed on the cell surface; assay: flow cytometry on human PBMCs gated on CD19+ B cells, one donor, 0 µM ATP
[21] = target: T1, human CD39 expressed on the cell surface; assay: flow cytometry on human PBMCs gated on CD19+ B cells, one donor, 400 µM ATP

Human THP-1 CD39 inhibition IC50 [1]: 0.042 nM
IC50, inhibition of recombinant CD39 enzymatic activity, 20 uM ATP [2]: 2.3 nM
Max Inhibition (%), recombinant CD39, 20 uM ATP [2]: 100%
IC50, CD39 enzymatic inhibition on SK-MEL-5 cells, 20 uM ATP [3]: 0.56 nM
Max Inhibition (%), SK-MEL-5 cells [3]: 63%
IC50, CD39 enzymatic inhibition on THP-1 cells, 20 uM ATP [4]: 0.11 nM
Max Inhibition (%), THP-1 cells [4]: 67%
EC50 [5]: 0.79 nM
EC50 [6]: 0.32 nM
EC50 [7]: 0.69 nM
EC50 [8]: 1.3 nM
binding result [9]: no binding
Kd [10]: 0.336 nM
koff [10]: 9.4e-05 s⁻¹
kon [10]: 280000 M⁻¹ s⁻¹
Kd [11]: 0.214 nM
koff [11]: 7.45e-05 s⁻¹
kon [11]: 348000 M⁻¹ s⁻¹
B1: ch39_IGG4.P (antibody, human IgG4 S228P, kappa)
heavy: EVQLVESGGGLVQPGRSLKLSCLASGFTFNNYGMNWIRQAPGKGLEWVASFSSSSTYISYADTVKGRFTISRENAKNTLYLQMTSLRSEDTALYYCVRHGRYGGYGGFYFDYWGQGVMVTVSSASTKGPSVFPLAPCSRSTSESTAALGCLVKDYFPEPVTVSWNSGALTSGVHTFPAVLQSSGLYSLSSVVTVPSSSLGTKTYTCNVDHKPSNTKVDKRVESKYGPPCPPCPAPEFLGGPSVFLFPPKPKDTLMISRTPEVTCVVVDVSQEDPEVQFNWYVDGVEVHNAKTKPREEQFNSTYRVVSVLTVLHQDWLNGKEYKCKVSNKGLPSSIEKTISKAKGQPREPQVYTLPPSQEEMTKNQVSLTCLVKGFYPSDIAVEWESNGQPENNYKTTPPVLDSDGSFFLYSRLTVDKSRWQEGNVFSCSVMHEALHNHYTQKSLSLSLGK
light: DTVLTQSPALAVSPGERVSISCRASEGVKSYMHWYQQKPGQQPKLLIYKASNLASGVPARFSGSGSGTDFTLTIDPVEADDTATYFCQQSWNDPTFGAGTKLELKRTVAAPSVFIFPPSDEQLKSGTASVVCLLNNFYPREAKVQWKVDNALQSGNSQESVTEQDSKDSTYSLSSTLTLSKADYEKHKVYACEVTHQGLSSPVTKSFNRGEC
notes: rat/human chimera of antibody 39, human IgG4 (S228P), kappa

binding result [12]: binds
B2: hu39.5_IGG1.AA-AF647 (antibody, human IgG1, kappa, L234A L235A)
heavy: not shown
light: DTVLTQSPASLAVSPGQRATITCRASEGVKSYMHWYQQKPGQPPKLLIYKASNLASGVPARFSGSGSGTDFTLTINPVEADDTANYYCQQSWNDPTFGQGTKLEIKRTVAAPSVFIFPPSDEQLKSGTASVVCLLNNFYPREAKVQWKVDNALQSGNSQESVTEQDSKDSTYSLSSTLTLSKADYEKHKVYACEVTHQGLSSPVTKSFNRGEC
modifications: antibody conjugated to AF647 (Lightning Link kit; residues not stated)

Human THP-1 CD39 inhibition IC50 [1]: 0.09 nM
IC50, inhibition of recombinant CD39 enzymatic activity, 20 uM ATP [2]: 1.3 nM
Max Inhibition (%), recombinant CD39, 20 uM ATP [2]: 100%
IC50, CD39 enzymatic inhibition on SK-MEL-5 cells, 20 uM ATP [3]: 2.4 nM
Max Inhibition (%), SK-MEL-5 cells [3]: 63%
IC50, CD39 enzymatic inhibition on THP-1 cells, 20 uM ATP [4]: 0.14 nM
Max Inhibition (%), THP-1 cells [4]: 86%
EC50 [5]: 4.44 nM
EC50 [6]: 2.55 nM
EC50 [7]: 27 nM
EC50 [8]: 28 nM
binding result [9]: no binding
Kd [13]: 0.129 nM
koff [13]: 0.00015 s⁻¹
kon [13]: 1.16e+06 M⁻¹ s⁻¹
Kd [11]: 0.113 nM
koff [11]: 0.000125 s⁻¹
kon [11]: 1.1e+06 M⁻¹ s⁻¹
B3: ch31_IGG4.P (antibody, human IgG4 S228P, kappa, V domains shown)
VH: EVHLQQSGAALVRPGTSVKLPCKVSGDSITAYFMHFVRQRPGQGLEWMGRIDPDHERTKYAEKFKNRASLTSETSSNTVFLQLTSLTSEDTATYFCTTERVPGFETDYWGQGVMVTVSS
VL: DIVLTQSPTLAVSLGQRATISCRTNQTVDHYGTTYMNWYQQKPGQQPKLLIYLASSLASGIPARFSGRGSGTDFTLTIDPVEADDTATYYCQQSRNLWTFGGGTKLELKR
notes: rat/human chimera of antibody 31, human IgG4 (S228P), kappa

IC50, CD39 enzymatic inhibition on human monocytes, 20 uM ATP [14]: 2.7 nM
Max Inhibition (%), human monocytes, 20 uM ATP [14]: 74%
IC50, CD39 enzymatic inhibition on human monocytes, 400 uM ATP [15]: 1.4 nM
Max Inhibition (%), human monocytes, 400 uM ATP [15]: 62%
EC50 [16]: 0.9 nM
EC50 [17]: 1 nM
EC50 [18]: 0.8 nM
EC50 [19]: 1 nM
EC50 (read off the curve) [20]: ~700 pM
EC50 (read off the curve) [21]: ~800 pM
B4: huBMK2_IGG1.AEASS (antibody, human IgG1, kappa, V domains shown)
VH: QVQLVQSGAEVKKPGASVKVSCKASGYTFTDYNMHWVRQAPGQRLEWIGYIVPLNGGSTFNQKFKGRATITVDTSARTAYMELSSLRSEDTAVYYCARGGTRFAYWGQGTLVTVSS
VL: DIVMTQSPDSLAVSLGERATINCRASESVDNFGVSFMYWFQQKPGQPPKLLIYGASNQGSGVPDRFSGSGSGTDFTLTISSLQAEDVAVYYCQQTKEVPYTFGGGTKVEIKR
notes: also called previously described anti-CD39 antibody (comparator)

Reference: patent publication US20250084178A1 (ARCUS BIOSCIENCES, published 2025)
